We go through two molecules from publication PMC4871701, “Release of GTP Exchange Factor Mediated Down-Regulation of Abscisic Acid Signal Transduction through ABA-Induced Rapid Degradation of RopGEFs” (PLoS Biology, 2016).

The target in this test is T1, GST-GEF1 (Arabidopsis thaliana, UniProt Q93ZY2 1-548).
T1 construct: RopGEF1 (GEF1), Arabidopsis thaliana; also called GST-tagged GEF1; GST-RopGEF1; source: E. coli Rosetta (DE3) pLysS, purified (Glutathione Sepharose); not shown: GST, N-terminal, kept
T1 sequence (looked up): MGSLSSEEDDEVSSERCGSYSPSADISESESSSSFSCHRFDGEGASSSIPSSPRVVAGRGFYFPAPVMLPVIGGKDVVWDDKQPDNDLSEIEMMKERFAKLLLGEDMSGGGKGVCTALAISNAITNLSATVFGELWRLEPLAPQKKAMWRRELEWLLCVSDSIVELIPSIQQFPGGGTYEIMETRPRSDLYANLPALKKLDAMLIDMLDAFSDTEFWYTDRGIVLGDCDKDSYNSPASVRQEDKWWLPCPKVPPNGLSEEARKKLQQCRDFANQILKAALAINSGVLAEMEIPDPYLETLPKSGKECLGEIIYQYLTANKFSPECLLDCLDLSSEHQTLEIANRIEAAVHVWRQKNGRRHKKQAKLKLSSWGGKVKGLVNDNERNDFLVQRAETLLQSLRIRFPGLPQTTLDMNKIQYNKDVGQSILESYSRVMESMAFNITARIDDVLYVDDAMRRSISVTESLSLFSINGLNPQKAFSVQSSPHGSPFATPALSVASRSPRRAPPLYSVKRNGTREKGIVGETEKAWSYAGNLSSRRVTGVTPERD
The test can be described thus: pull-down; GST-GEF1 on Glutathione Sepharose beads as bait, StrepII-tagged input proteins; bound proteins detected by blot for Strep-II. The note with it: both partners purified.

B1: StrepII-ABI1 (enzyme, Arabidopsis thaliana, UniProt P49597 1-434, looked up)
chain: MEEVSPAIAGPFRPFSETQMDFTGIRLGKGYCNNQYSNQDSENGDLMVSLPETSSCSVSGSHGSESRKVLISRINSPNLNMKESAAADIVVVDISAGDEINGSDITSEKKMISRTESRSLFEFKSVPLYGFTSICGRRPEMEDAVSTIPRFLQSSSGSMLDGRFDPQSAAHFFGVYDGHGGSQVANYCRERMHLALAEEIAKEKPMLCDGDTWLEKWKKALFNSFLRVDSEIESVAPETVGSTSVVAVVFPSHIFVANCGDSRAVLCRGKTALPLSVDHKPDREDEAARIEAAGGKVIQWNGARVFGVLAMSRSIGDRYLKPSIIPDPEVTAVKRVKEDDCLILASDGVWDVMTDEEACEMARKRILLWHKKNAVAGDASLLADERRKEGKDPAAMSAAEYLSKLAIQRGSKDNISVVVVDLKPRRKLKSKPLN
notes: ABI1, type 2C protein phosphatase, Arabidopsis thaliana; also called Strep-II tagged ABI1; source: E. coli Rosetta (DE3) pLysS, purified (Strep-Tactin resin); not shown: Strep-II, N-terminal, kept
For the molecule B1, the binding result is on record as “binds”.

B2: StrepII-ROP11 (natural protein)
chain: not shown
notes: ROP11, ROP/RAC small GTPase, Arabidopsis thaliana; also called Strep-II tagged ROP11; source: E. coli Rosetta (DE3) pLysS, purified (Strep-Tactin resin); not shown: Strep-II, N-terminal, kept
As to B2, the binding result is “binds”.
